Assay results taken from patent US5304480.

How the values were obtained:
[1] = system: XhoII restriction endonuclease (Xanthomonas campestris pv. holcicola ATCC 13461); assay: cleavage_in_vitro; conditions: 20 mM Tris HCl pH 7.4, 10 mM MgCl2, 37 C; no activity detected from E. coli DH10B extracts
[2] = system: XhoI restriction endonuclease (Xanthomonas campestris pv. holcicola ATCC 13461); assay: cleavage_in_vitro; conditions: 50 mM Tris HCl pH 8.1, 10 mM MgCl2, 50 mM NaCl, 37 C; no activity detected from E. coli DH10B extracts

| Substance | activity (units per gram of cells) [1] | activity (units per gram of cells) [2] |
| --- | --- | --- |
| phage lambda DNA (XhoII/BstYI sites) | 10000 | – |
| Adenovirus-2 DNA (XhoI sites) | – | 100000 |
